Reference: paper doi:10.1101/2024.02.24.581848

Biological target: HigC SecB^TA chaperone of the E. coli NT1F31 HigBAC system (E. coli NT1F31)
Assay: ITC

Binder | Kd [µM] | effective KD with 1.5-fold molar excess of the HigA ChAD peptide [µM] | stoichiometry N
GELTAESYDDSYLDDEDADWTATGQGQKSAG [gpV^48-78 peptide] | 0.25 | 6.6 | 0.47
GELTAESYDDSYLAAAAADWTATGQGQKSAG [gpV^48-78 peptide, poly-alanine substitution of the D61DED64 element] | 7 |  | 0.5
